The text below walks through data of patent publication US20200292555.

For this data set, the target named is T1, Ac-DEVD-CHO.
T1 chain: DEVD

B1: recombinant, purified active CASP10 (protein)
chain: VKTFLEALPQESWQNKHAGSNGNRATNGAPSLVSRGMQGASANTLNSETSTKRAAVYRMNRNHRGLCVIVNNHSFTSLKDRQGTHKDAEILSHVFQWLGFTVHIHNNVTKVEMEMVLQKQKCNPAHADGDCFVFCILTHGRFGAVYSSDEALIPIREIMSHFTALQCPRLAEKPKLFFIQACQGEEIQPSVSIEADALNPEQAPTSLQDSIPAEADFLLGLATVPGYVSFRHVEEGSWYIQSLCNHLKKLVPRMLKFLEKTMEIRGRKRTVWGAKQISATSLPTAISAQTPRPPMRRWSSVS
As to B1, the “activity of recombinant, purified active CASP10 (500 nM; fluorometric AEVD-AMC substrate in MDA-MB-231 lysate)” value is listed as “DEVD-CHO ... (20 µM) inhibited the activity of CASP10”.
